Data published in PMC9262599, “DNA G-quadruplex structure participates in regulation of lipid metabolism through acyl-CoA binding protein”.

Tests used:
BmLARK [1] = molecular target: T1, BmLARK (Bombyx mori, UniProt Q5I7M6 1-343); assay: EMSA; 50 mM K+; 10 mM Tris pH 7.5, 50 mM KCl, 1 mM DTT, room temperature, 20 min; 2 uM probe, 2 ug BmLARK or 1 ug BG4 in 20 ul; 4% PAGE on ice; conditions: protein: recombinant; tags: GST (pGEX-6P-1); label: 5' 6-FAM
BmLARK [2] = molecular target: T1, BmLARK; assay: EMSA; 50 mM K+; reduced by unlabelled same-sequence competitor; 10 mM Tris pH 7.5, 50 mM KCl, 1 mM DTT, room temperature, 20 min; 2 uM probe, 2 ug BmLARK or 1 ug BG4 in 20 ul; 4% PAGE on ice; conditions: protein: recombinant; tags: GST (pGEX-6P-1); label: 5' 6-FAM; G-quadruplex

T1 sequence (Q5I7M6 entry or part of it): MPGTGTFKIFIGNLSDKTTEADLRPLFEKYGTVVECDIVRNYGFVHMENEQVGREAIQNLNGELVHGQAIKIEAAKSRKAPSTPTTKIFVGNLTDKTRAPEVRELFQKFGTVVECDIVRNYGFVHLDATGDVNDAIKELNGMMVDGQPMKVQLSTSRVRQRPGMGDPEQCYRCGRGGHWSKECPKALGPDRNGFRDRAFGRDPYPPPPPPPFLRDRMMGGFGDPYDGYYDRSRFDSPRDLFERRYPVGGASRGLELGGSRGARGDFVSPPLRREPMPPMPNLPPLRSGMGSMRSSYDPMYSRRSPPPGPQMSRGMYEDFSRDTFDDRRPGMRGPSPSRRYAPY

Row | Binder | binding result (BmLARK [1]) | binding result (BmLARK [2])
1 | GTCGTGAAGGTGTTGATGGAGTGTAGGTT (ssDNA) [FAM-Mut BmACBP G4] | no binding | –
2 | GTCGGGAAGGGGTTGGGGGGGGGTAGGTT (structured_DNA) [FAM-BmACBP G4 (folded with K+)] | – | binds
